Test results as given in patent US20250011391A1, “ULTRA LIGHT-SENSITIVE NEUROPSIN-BASED OPTOGENETIC TOOL FOR ACTIVATING G q-COUPLED SIGNALING AND/OR ACTIVATING CELLS” (GENANS BIOTECHNOLOGY CO., LTD, priority 2021, published 2025).

Test system: Gi signaling
Assay: cAMP levels in Opn5-expressing HEK 293T cells after photostimulation
Format: cell-based
Conditions: without additional retinal; 10 μM forskolin preincubation
Experimental: Whether heterologous expression of the Opn5 orthologs from chicken, turtles, humans and mice (which share 80-90% protein sequence identity) have the capacity to mediate blue light-induced Gq signaling activation within HEK 293T cells is tested (FIG. 1a and table 7). Blue light for stimulation and the red intracellular calcium indicator Calbryte™ 630 AM dye are used to monitor the relative Ca^2+ response (FIG. 1b).
f, Light has no effect on cAMP levels (10 μM forskolin preincubation) in cOpn5-expressing HEK 293T cells without additional retinal in the medium (left panel).

B1: cOpn5: Chicken (Gallus gallus) Opn5 (neuropsin) ortholog, SEQ ID NO:1, GenBank NM_001130743.1 (protein, listed as Gallus lafayetii)
chain: MSGMASDCNSSSQEEYLPHYVQQEDPFASKLSREADIIAGFYLTVIGILSTLGNGYVIFMSSKRKKKLRPAEIMTVNLAVCDLGISVVGKPFSIISFFSHRWIFGWMGCRWYGWAGFFFGCGSLITMTAVSLDRYLKICHLAYGTWLKRHHAFICLALIWAYATFWATVPFAGVGSYAPEPFGTSCTLDWWLAQASVAGQAFVLSILFFCLLFPTAVIVFSYVKIILKVKSSTKEVAHYDTRIQNSHILEMKLTKVAMLICAGFLIAWIPYAVVSVWSAFGQPDSVPIQFSVVPTLLAKSAAMYNPIIYQVIDCKFACCRSGGPKTLQKKSSLKESRMYTLSSHRDSAALSGTQLEV
- effect of light on cAMP levels: has no such effect
